Measured values published in US8980614B2, “Staphylococcus haemolyticus prophage φSH2 endolysin is lytic for Staphylococcus aureus” (The United States of America, as represented by The …, priority 2012, dated 2015).

Key:
S. hyicus = assay: Plate lysis assay; type: cell-based
Method: (§1) Purified proteins (100 pmoles in a 10 μl volume and five two-fold serial dilutions thereof) were spotted onto a freshly spread lawn of log phase staphylococcal cells (OD600 nm of 0.4-0.6, diluted ¼ before plating) that had air dried for 15 min on gridded TSA (tryptic soy agar) plates. The spotted plates were air dried for 10 min in a laminar flow hood and incubated overnight at 37° C. Cleared spots indicating cell lysis were scored within 24 hours of plating the cells.
(§2) The φSH2 full length enzyme and the A1 construct were further tested in plate lysis assays against a set of different staphylococcal strains, including MRSA strains (NRS 382-385), mastitis isolates (305, Tanji 1-26), and coagulase negative staphylococci (non S. aureus) (Table 2). The same molar amounts of both proteins (ranging from 100 pmoles to 3.125 pmoles, in a volume of 10 ul) were spotted onto lawns of mid log phase cells of the respective strains, and the plates were analyzed for lysis zones the next day.

S. aureus Tanji 19 = assay: Plate lysis assay; type: cell-based; conditions: 100 pmoles and 2-fold serial dilutions spotted on bacterial lawns
Method: as §1, §2

S. aureus Tanji 26 = assay: Plate lysis assay; type: cell-based; conditions: 100 pmoles and 2-fold serial dilutions spotted on bacterial lawns
Method: as §1, §2

S. aureus 305 = assay: Plate lysis assay; type: cell-based; conditions: 100 pmoles and 2-fold serial dilutions spotted on bacterial lawns
Method: as §1, §2

S. aureus Newman = assay: Plate lysis assay; type: cell-based
Method: as §1, §2

S. epidermidis = assay: Plate lysis assay; type: cell-based; conditions: 100 pmoles and 2-fold serial dilutions spotted on bacterial lawns
Method: as §1, §2

S. aureus NRS 383 = assay: Plate lysis assay; type: cell-based; conditions: S. aureus NRS 383 (MRSA); 100 pmoles and 2-fold serial dilutions spotted on bacterial lawns
Method: as §1, §2

S. simulans = assay: Plate lysis assay; type: cell-based
Method: as §1, §2

S. xylocus = assay: Plate lysis assay; type: cell-based; conditions: 100 pmoles and 2-fold serial dilutions spotted on bacterial lawns
Method: as §1, §2

S. aureus Tanji 1 = assay: Plate lysis assay; type: cell-based; conditions: 100 pmoles and 2-fold serial dilutions spotted on bacterial lawns
Method: as §1, §2

S. aureus NRS 382 = assay: Plate lysis assay; type: cell-based; conditions: S. aureus NRS 382 (MRSA); 100 pmoles and 2-fold serial dilutions spotted on bacterial lawns
Method: as §1, §2

S. aureus NRS 384 = assay: Plate lysis assay; type: cell-based; conditions: S. aureus NRS 384 (MRSA); 100 pmoles and 2-fold serial dilutions spotted on bacterial lawns
Method: as §1, §2

S. chromogenes = assay: Plate lysis assay; type: cell-based; conditions: 100 pmoles and 2-fold serial dilutions spotted on bacterial lawns
Method: as §1, §2

S. aureus Tanji 20 = assay: Plate lysis assay; type: cell-based; conditions: 100 pmoles and 2-fold serial dilutions spotted on bacterial lawns
Method: as §1, §2

S. warneri = assay: Plate lysis assay; type: cell-based; conditions: 100 pmoles and 2-fold serial dilutions spotted on bacterial lawns
Method: as §1, §2

S. aureus NRS 385 = assay: Plate lysis assay; type: cell-based; conditions: S. aureus NRS 385 (MRSA); 100 pmoles and 2-fold serial dilutions spotted on bacterial lawns
Method: as §1, §2

S. aureus Newman cells [1] = assay: Turbidity reduction assay; type: cell-based, Staphylococcus aureus
Method: The turbidity reduction assay measures a decrease in optical density of a bacterial suspension due to lysis of the target bacteria by a lytic protein. The assays were performed in a 96-well dish format essentially as described previously (Donovan et al. 2006, supra). In order to reduce the variability of the assay, frozen stocks of S. aureus Newman substrate cells were prepared in a large batch as described by Becker et al. (2009b, supra). Immediately prior to the assay, the frozen cells were thawed, washed, and resuspended in the desired assay buffer such that when 100 μl of cell suspension were added to 100 μl of lysis buffer+/−protein, the final suspension has an OD600nm of ˜1.0.
Protein constructs were assayed at a concentration of 1 μM, and the assay was performed at room temperature, measuring the OD600nm at 1 min intervals for 45 min. Buffer without enzyme served as the control. The steepest slopes of the resulting lysis curves, which correspond to the lytic activities of the proteins, were determined by a sliding window over each group of three consecutive time points for the entire 45 min period. Specific activities were expressed as ΔOD600nm/min/μM, and the “no enzyme” control value was subtracted from each experimental value.
In order to determine the effect of salt concentration on lytic activity, turbidity reduction assays were performed in 10 mM Tris buffers at pH 7.5 with varying NaCl concentrations between 0 mM and 600 mM. Accordingly, the influence of pH was determined by using a series of different buffers with pH values ranging from 3.5 to 10.0. Citrate buffers were used for pH 3.5, 4.5, 5.5, and 6.0, MOPS buffers for pH 6.5, 7.0, and 7.5, Tris buffers for pH 8.0 and 9.0, and Carbonate/bicarbonate buffer for pH 10.0. The concentration of the buffer substance in all buffers used was 20 mM, and the NaCl concentration was 200 mM. To test the effect of bivalent metal ions, assays were performed in 10 mM Tris, 200 mM NaCl, pH 7.5 supplemented with MgCl2, MnCl2, or CaCl2 at different concentrations (0.1 mM, 1 mM, 10 mM), buffer without metal ions serving as control.

[2] = system: staphylococcal strains (MRSA strains, mastitis isolates, coagulase negative staphylococci); assay: Plate lysis assay, whole set of strains; type: cell-based, Staphylococcus; conditions: 100 to 3.125 pmoles spotted
Method: as §1, §2

S. aureus Newman cells [3] = assay: Zymogram with S. aureus Newman cells embedded in the gel; type: cell-based; conditions: 5 μg protein
Method: All purified proteins were analyzed with 15% SDS-PAGE, using a Kaleidoscope Precision Plus Protein Standard (BioRad, Hercules, Calif.). For zymograms, a 300 mL culture volume equivalent of live mid-log phase (OD600nm=0.4-0.6) cells of S. aureus strain Newman was embedded in the gel during polymerization. The protein samples were boiled in Laemmli sample buffer (BioRad) with β-mercaptoethanol, and electrophoresed with identical buffers and voltage for one hour in both the SDS-PAGE and the zymogram using a Mini-Protean TETRA gel system (BioRad). SDS gels were Coomassie stained and zymograms were washed in excess water and further incubated in deionized water for 60 min, followed by incubation in 10 mM Tris, pH 8.0 with 150 mM or 300 mM NaCl for 80 min. Areas of clearing in the turbid zymogram gel indicate a lytic protein in the gel.

MRSA strain NRS382 = assay: Control of systemic MRSA infection in a murine model; type: in vivo, Balb/c mice
[4] = 100 pmoles and 2-fold serial dilutions spotted on bacterial lawns

B1: ΦSH2 full length: Full length C-terminally 6×His-tagged Staphylococcus haemolyticus φSH2 prophage endolysin (1-493), SEQ ID NO:2 (protein)
chain: MKTQAEINKRLDAYRKGTVDSPYRVKVWTSYDNRFYPMEPGCIDVDKSFHAQCADLTIDYILWLTDNEFRIRGNAKDAINPKKNKLPEGWKIVLNRPSTVPRKGWIAVFTDGTYWEYGHIGMVYDGGNTSRFQILEQNWNGWANKKPSLRWDNYYGLTHFIVPPVAKENKAVSSSKQQAPKQKVKKASTKKALPKITKHITGYNMDKRGYNPKGVVLHNDAGGMNYKQYYNNLVNANYDRLARGIAHAYVDRTGIWEAIDESRIAWHVADGTRPGSGNHDFYGIEVNQSLRASDKEFLENEQAVFQFAAEKLKKWGLPANRNTVRLHNEFSQTSCPHRSMVLHTGLDPLYHSITEHARLKLKDYFIKQIRAYMDGKKPTSKVVVSKPGSASTPATRKDANGYRENPHGTLYKEEHATFTANANIITRYVGPFTNMPQAGILKAGQTIIYDEVMKQDGYIWVGYTAYNGKRVYLPVRKWNRETDSVGKLWGVISLEHHHHHH
modifications: C-terminal 6xHis tag; Bacteriophage Phi SH2
- Lytic activity (lowest amount of protein producing a lysis zone) (S. hyicus; [4]): ++++++ (++++++: ≦3.125 pmoles)
- amount of protein causing a lysis zone (S. hyicus; 100 to 3.125 pmoles spotted): lowest amount tested
- Lytic activity (lowest amount of protein producing a lysis zone) (S. aureus Tanji 19): ++ (++: 50 pmoles)
- Lytic activity (lowest amount of protein producing a lysis zone) (S. aureus Tanji 26): + (+: 100 pmoles)
- Lytic activity (lowest amount of protein producing a lysis zone) (S. aureus 305): ++ (++: 50 pmoles)
- Lytic activity (lowest amount of protein producing a lysis zone) (S. aureus Newman; [4]): − (‘−’ means that no lysis was observed at the highest amount tested (100 pmoles))
- amount of protein causing a lysis zone (S. aureus Newman; 100 to 3.125 pmoles spotted): not lysed by the highest amount
- Lytic activity (lowest amount of protein producing a lysis zone) (S. epidermidis): − (‘−’ means that no lysis was observed at the highest amount tested (100 pmoles))
- Lytic activity (lowest amount of protein producing a lysis zone) (S. aureus NRS 383): − (‘−’ means that no lysis was observed at the highest amount tested (100 pmoles))
- Lytic activity (lowest amount of protein producing a lysis zone) (S. simulans; [4]): + (+: 100 pmoles)
- amount of protein causing a lysis zone (S. simulans; 100 to 3.125 pmoles spotted): 100 pmol
- Lytic activity (lowest amount of protein producing a lysis zone) (S. xylocus): +++ (+++: 25 pmoles)
- Lytic activity (lowest amount of protein producing a lysis zone) (S. aureus Tanji 1): ++ (++: 50 pmoles)
- Lytic activity (lowest amount of protein producing a lysis zone) (S. aureus NRS 382): − (‘−’ means that no lysis was observed at the highest amount tested (100 pmoles))
- Lytic activity (lowest amount of protein producing a lysis zone) (S. aureus NRS 384): + (+: 100 pmoles)
- Lytic activity (lowest amount of protein producing a lysis zone) (S. chromogenes): +++ (+++: 25 pmoles)
- Lytic activity (lowest amount of protein producing a lysis zone) (S. aureus Tanji 20): ++ (++: 50 pmoles)
- Lytic activity (lowest amount of protein producing a lysis zone) (S. warneri): +++ (+++: 25 pmoles)
- Lytic activity (lowest amount of protein producing a lysis zone) (S. aureus NRS 385): − (‘−’ means that no lysis was observed at the highest amount tested (100 pmoles))
- NaCl concentration of optimum lytic activity (S. aureus Newman cells [1]; 1 μM protein, 10 mM Tris pH 7.5, NaCl 0-600 mM): 300 mM
- lytic activity in turbidity reduction assays (in words) (S. aureus Newman cells [1]; 1 μM protein, different NaCl concentrations): moderate lytic activity
- increase of lytic activity by Ca2+ (S. aureus Newman cells [1]; 10 mM CaCl2, relative to 0 mM, 10 mM Tris, 200 mM NaCl, pH 7.5): three-fold
- effect of Mg2+ on lytic activity (S. aureus Newman cells [1]; 0.1-10 mM MgCl2, 10 mM Tris, 200 mM NaCl, pH 7.5): not significantly alter
- effect of Mn2+ on lytic activity (S. aureus Newman cells [1]; 0.1-10 mM MnCl2, 10 mM Tris, 200 mM NaCl, pH 7.5): slightly inhibitory effect
- strains against which lytic activity was displayed ([2]; 16 strains tested): 11 out of 16
- MRSA strains lysed ([2]; four MRSA strains (NRS 382-385)): one out of four
- lysis in zymogram (S. aureus Newman cells [3]; after incubation in deionized water for 60 min): faint zones of lysis
- lysis in zymogram (S. aureus Newman cells [3]; water 60 min, then 10 mM Tris, 150 mM NaCl, pH 8.0 up to 80 min): considerably weaker
- lysis in zymogram (S. aureus Newman cells [3]; water 60 min, then 10 mM Tris, 300 mM NaCl, pH 8.0 for 80 min): pronounced lytic band
- % Survival (MRSA strain NRS382; 0 hours, mice infected i.p. with MRSA NRS382, treated 30 min post infection (φSH2 200 μg/mouse i.p.; Vancomycin 375 μg/mouse s.c.; Oxacillin 1250 μg/mouse s.c.)): 100%
- % Survival (MRSA strain NRS382; 4 hours, same infection and treatment): 100%
- % Survival (MRSA strain NRS382; 8 hours, same infection and treatment): 100%
- % Survival (MRSA strain NRS382; 12 hours, same infection and treatment): 100%
- % Survival (MRSA strain NRS382; 16 hours, same infection and treatment): 100%
- % Survival (MRSA strain NRS382; 20 hours, same infection and treatment): 100%
- % Survival (MRSA strain NRS382; 24 hours, same infection and treatment): 100%
- % Survival (MRSA strain NRS382; 28 hours, same infection and treatment): 100%
- % Survival (MRSA strain NRS382; 32 hours, same infection and treatment): 100%
- % Survival (MRSA strain NRS382; 36 hours, same infection and treatment): 100%
- % Survival (MRSA strain NRS382; 40 hours, same infection and treatment): 100%
- % Survival (MRSA strain NRS382; 44 hours, same infection and treatment): 100%
- % Survival (MRSA strain NRS382; 48 hours (end of the experiment), same infection and treatment): 100%
